Measured values as given in patent publication US6013258A, “Immunogenic peptides from the HPV E7 protein” (priority 1997, dated 2000).

Target: T1, recombinant HLA-A2 (Homo sapiens, UniProt P04439, D140Y/D185E/D98H/E176V/E277Q/G131W/G231S/I119V/I121R/I166T/I218V/N151K/N90K/P208A/P217A/Q86G/Q94H/R138H/R169H)
T1 construct: made in house; host or cells: E. coli
Format: binding
Settings: peptide-HLA-A2 complex, monitored by circular dichroism

A2.2: peptide derived from HPV strain 16 E7 protein, SEQ ID NO:17 (YMLDLQPET) [Peptide A2.2]
Tm (temperature at which 50% of the refolded complexes are melted): 52.5 degrees Celsius
